KM of multiple-turnover degradation (Michaelis-Menten, anisotropy of 5-FAM), FRET amplitude of tail insertion, percent of that of the 35-residue tail and time constant of tail insertion (FRET change) data for four substances are collected here from doi:10.1101/359695.

Test [1] addresses reconstituted 26S proteasome (S. cerevisiae), all wild-type components (S. cerevisiae) (UniProt P33299).
For test [2], the target named is reconstituted 26S proteasome with Cy3-labeled base (Rpt1-I191AzF-Cy3) (S. cerevisiae) (UniProt P33299). Put plainly: FRET or BRET. (Bioluminescence resonance energy transfer reports proximity on the nanometre scale.)

Consider “ubiquitinated 5-FAM-titin-I27^V15P-35 (from UniProt P0CG63 1-76)”, for which the KM of multiple-turnover degradation (Michaelis-Menten, anisotropy of 5-FAM) in test [1] worked out at 0.22 µM.

The substance “ubiquitinated titin-I27^V15P-1 (1 AA tail), acceptor-labeled (from UniProt P0CG63 1-76)” returned an FRET amplitude of tail insertion, percent of that of the 35-residue tail in test [2] of 16%.

Regarding “ubiquitinated titin-I27^V15P-11 (11 AA tail), acceptor-labeled (from UniProt P0CG63 1-76)”, the FRET amplitude of tail insertion, percent of that of the 35-residue tail in test [2] is 25%.

With “ubiquitinated titin-I27^V15P-35 modified with Cy5 on its unstructured tail (from UniProt P0CG63 1-76)”, the time constant of tail insertion (FRET change) in test [2] was 1.6 s.
